The data set “SEC” concerns the molecule itself. Put plainly: SEC.
The data set “crystal structure” concerns the molecule itself. Put plainly: crystal structure.

B1: short-chain dehydrogenase/reductase-family oxidoreductase from Brucella ovis ATCC 25840 (enzyme)
chain: MELLKEKLVLVTGAGRGLGAAISSGAAEQGARVILVDIDGTAAKAQADALTAKGFVAEGHALDVTDRDAVAALADDILSRFGGLDVLVNNAGVAGRAAFDQPEAVEVWDRVIGVNLEGAFNVSHALVPALKAAKGNVVHLCSVAGFVSGGSTAGYVVSKGAIRSLTQVMARDLAPHGIRVNAVAPGIMMSEMAVAQLNRPGGTDWFMNRVMMKRIGETSEVVDPVVFLASPMASYITGTILPVDGGFLAA
notes: also called BoSDR; B. ovis SDR; not shown: His6, N-terminal, kept
On to B1, for which the stoichiometry N – broadly, a count of units in the complex or per binding partner – was about 2 in the data set “SEC” and 4 in the data set “crystal structure”.

The values above are taken from PMC12810213, “Crystal structure of a short-chain dehydrogenase from Brucella ovis with apo and coenzyme NAD^+-bound protomer chains” (Acta Crystallographica Section F: Structural Biology …, 2025).
